Columns and labels:
[1] = system: HeLa Kyoto; assay: melting temperature (median over replicates), in situ; higher = more thermally stable
[2] = system: HeLa Kyoto; assay: solubility change mitosis vs G1/S (difference of NP-40 vs SDS log2 ratios) (log2 ratio difference); higher = more soluble in mitosis
[3] = system: HeLa Kyoto; assay: solubility in G1/S (NP-40 vs SDS abundance) (log2 ratio); higher = more soluble; settings: cell cycle stage: G1/S
[4] = system: HeLa Kyoto; assay: thermal stability score vs G1/S (z-score of summed log2 fold changes over temperatures); higher = more thermally stable than in G1/S
[5] = cell cycle stage: early G1 (4.5 h after nocodazole release)
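Wherever melting temperature (median over replicates), in situ is given: HeLa Kyoto cells synchronized by double thymidine or nocodazole block, proteins quantified by TMT10plex mass spectrometry, three independent biological replicates.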
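Wherever solubility change mitosis vs G1/S (difference of NP-40 vs SDS log2 ratios) is given: synchronized HeLa Kyoto cells (double thymidine block for G1/S, nocodazole release for mitosis), protein amounts in NP-40 versus SDS lysates quantified by mass spectrometry, three biological replicates.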
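Wherever solubility in G1/S (NP-40 vs SDS abundance) is given: HeLa Kyoto cells arrested at G1/S by double thymidine block, proteins quantified by TMT10plex mass spectrometry in mild NP-40 versus SDS extracts, three biological replicates.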
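Wherever thermal stability score vs G1/S (z-score of summed log2 fold changes over temperatures) is given: synchronized HeLa Kyoto cells, proteins quantified by TMT10plex mass spectrometry, three biological replicates, mitosis taken 0.5 h after nocodazole release, G1/S directly after double thymidine block.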

Sequence of VPRBP (chain, as listed by the source): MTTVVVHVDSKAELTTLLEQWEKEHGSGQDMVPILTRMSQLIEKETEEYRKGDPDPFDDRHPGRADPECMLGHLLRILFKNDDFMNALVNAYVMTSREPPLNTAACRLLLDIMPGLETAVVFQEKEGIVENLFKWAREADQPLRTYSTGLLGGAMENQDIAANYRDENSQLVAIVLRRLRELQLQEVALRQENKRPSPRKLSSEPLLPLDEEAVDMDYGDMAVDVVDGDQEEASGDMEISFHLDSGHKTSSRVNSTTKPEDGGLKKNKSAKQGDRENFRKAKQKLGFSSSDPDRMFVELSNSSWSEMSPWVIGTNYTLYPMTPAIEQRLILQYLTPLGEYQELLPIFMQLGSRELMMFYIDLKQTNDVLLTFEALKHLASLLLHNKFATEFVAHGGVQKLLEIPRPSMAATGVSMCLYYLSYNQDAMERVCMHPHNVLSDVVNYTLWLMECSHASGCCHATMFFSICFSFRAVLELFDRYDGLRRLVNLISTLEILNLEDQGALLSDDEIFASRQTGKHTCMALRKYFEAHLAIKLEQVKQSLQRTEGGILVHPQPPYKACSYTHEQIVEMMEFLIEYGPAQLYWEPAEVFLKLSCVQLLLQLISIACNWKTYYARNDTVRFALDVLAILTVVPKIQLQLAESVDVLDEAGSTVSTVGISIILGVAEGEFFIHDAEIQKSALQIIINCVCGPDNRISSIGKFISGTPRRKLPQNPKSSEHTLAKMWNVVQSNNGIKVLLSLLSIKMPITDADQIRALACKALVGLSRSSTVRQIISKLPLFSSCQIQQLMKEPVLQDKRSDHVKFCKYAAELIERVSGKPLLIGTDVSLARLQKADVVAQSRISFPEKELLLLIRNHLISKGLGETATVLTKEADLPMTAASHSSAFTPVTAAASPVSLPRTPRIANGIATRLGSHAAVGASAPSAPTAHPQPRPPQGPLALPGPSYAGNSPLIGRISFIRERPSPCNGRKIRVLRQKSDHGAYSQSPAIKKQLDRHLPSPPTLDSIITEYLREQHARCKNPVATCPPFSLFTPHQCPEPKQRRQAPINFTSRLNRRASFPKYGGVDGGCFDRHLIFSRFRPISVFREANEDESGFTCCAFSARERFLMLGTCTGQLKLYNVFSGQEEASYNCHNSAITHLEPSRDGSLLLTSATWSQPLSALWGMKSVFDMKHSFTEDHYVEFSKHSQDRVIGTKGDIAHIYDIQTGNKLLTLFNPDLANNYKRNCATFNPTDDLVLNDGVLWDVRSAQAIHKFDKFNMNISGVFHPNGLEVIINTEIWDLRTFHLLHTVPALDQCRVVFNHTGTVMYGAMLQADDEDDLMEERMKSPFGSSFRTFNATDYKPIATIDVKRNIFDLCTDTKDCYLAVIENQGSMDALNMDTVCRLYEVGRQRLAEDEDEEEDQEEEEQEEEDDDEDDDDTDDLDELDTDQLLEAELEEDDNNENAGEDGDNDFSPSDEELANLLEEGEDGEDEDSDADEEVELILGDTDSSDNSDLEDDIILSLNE

Substance	melting temperature ([1]; cell cycle stage: G1/S) [°C]	melting temperature ([1]; cell cycle stage: mitosis) [°C]	solubility change mitosis (log2) [2]	solubility in G1/S (log2) [3]	thermal stability score [4, 5]	thermal stability score ([4]; cell cycle stage: mitosis)
MFGPAKGRHFGVHPAPGFPGGVSQQAAGTKAGPAGAWPVGSRTDTMWRLRCKAKDGTHVLQGLSSRTRVRELQGQIAAITGIAPGGQRILVGYPPECLDLSNGDTILEDLPIQSGDMLIIEEDQTRPRSSPAFTKRGASSYVRETLPVLTRTVVPADNSCLFTSVYYVVEGGVLNPACAPEMRRLIAQIVASDPDFYSEAILGKTNQEYCDWIKRDDTWGGAIEISILSKFYQCEICVVDTQTVRIDRFGEDAGYTKRVLLIYDGIHYDPLQRNFPDPDTPPLTIFSSNDDIVLVQALELADEARRRRQFTDVNRFTLRCMVCQKGLTGQAEAREHAKETGHTNFGEV [YOD1]	50.2	50.2	0.0334	0.0787	0.646	1.06
MGTPGEGLGRCSHALIRGVPESLASGEGAGAGLPALDLAKAQREHGVLGGKLRQRLGLQLLELPPEESLPLGPLLGDTAVIQGDTALITRPWSPARRPEVDGVRKALQDLGLRIVEIGDENATLDGTDVLFTGREFFVGLSKWTNHRGAEIVADTFRDFAVSTVPVSGPSHLRGLCGMGGPRTVVAGSSDAAQKAVRAMAVLTDHPYASLTLPDDAAADCLFLRPGLPGVPPFLLHRGGGDLPNSQEALQKLSDVTLVPVSCSELEKAGAGLSSLCLVLSTRPHS [DDAH2]	55.2	54	0.0772	0.479	0.156	0.00237
MADAAPQLGKRKRELDVEEAHAASTEEKEAGVGNGTCAPVRLPFSGFRLQKVLRESARDKIIFLHGKVNEASGDGDGEDAVVILEKTPFQVEQVAQLLTGSPELQLQFSNDIYSTYHLFPPRQLNDVKTTVVYPATEKHLQKYLRQDLRLIRETGDDYRNITLPHLESQSLSIQWVYNILDKKAEADRIVFENPDPSDGFVLIPDLKWNQQQLDDLYLIAICHRRGIRSLRDLTPEHLPLLRNILHQGQEAILQRYRMKGDHLRVYLHYLPSYYHLHVHFTALGFEAPGSGVERAHLLAEVIENLECDPRHYQQRTLTFALRADDPLLKLLQEAQQS [DCPS]	56.3	55.7	-0.0249	0.263	-0.562	-3.36
MTSKKLVNSVAGCADDALAGLVACNPNLQLLQGHRVALRSDLDSLKGRVALLSGGGSGHEPAHAGFIGKGMLTGVIAGAVFTSPAVGSILAAIRAVAQAGTVGTLLIVKNYTGDRLNFGLAREQARAEGIPVEMVVIGDDSAFTVLKKAGRRGLCGTVLIHKVAGALAEAGVGLEEIAKQVNVVAKAMGTLGVSLSSCSVPGSKPTFELSADEVELGLGIHGEAGVRRIKMATADEIVKLMLDHMTNTTNASHVPVQPGSSVVMMVNNLGGLSFLELGIIADATVRSLEGRGVKIARALVGTFMSALEMPGISLTLLLVDEPLLKLIDAETTAAAWPNVAAVSITGRKRSRVAPAEPQEAPDSTAAGGSASKRMALVLERVCSTLLGLEEHLNALDRAAGDGDCGTTHSRAARAIQEWLKEGPPPASPAQLLSKLSVLLLEKMGGSSGALYGLFLTAAAQPLKAKTSLPAWSAAMDAGLEAMQKYGKAAPGDRTMLDSLWAAGQELQAWKSPGADLLQVLTKAVKSAEAAAEATKNMEAGAGRASYISSARLEQPDPGAVAAAAILRAILEVLQS [TKFC]	54.8	55	-0.0666	0.321	1.34	0.558
MDWGTELWDQFEVLERHTQWGLDLLDRYVKFVKERTEVEQAYAKQLRSLVKKYLPKRPAKDDPESKFSQQQSFVQILQEVNDFAGQRELVAENLSVRVCLELTKYSQEMKQERKMHFQEGRRAQQQLENGFKQLENSKRKFERDCREAEKAAQTAERLDQDINATKADVEKAKQQAHLRSHMAEESKNEYAAQLQRFNRDQAHFYFSQMPQIFDKLQDMDERRATRLGAGYGLLSEAELEVVPIIAKCLEGMKVAANAVDPKNDSHVLIELHKSGFARPGDVEFEDFSQPMNRAPSDSSLGTPSDGRPELRGPGRSRTKRWPFGKKNKPRPPPLSPLGGPVPSALPNGPPSPRSGRDPLAILSEISKSVKPRLASFRSLRGSRGTVVTEDFSHLPPEQQRKRLQQQLEERSRELQKEVDQREALKKMKDVYEKTPQMGDPASLEPQIAETLSNIERLKLEVQKYEAWLAEAESRVLSNRGDSLSRHARPPDPPASAPPDSSSNSASQDTKESSEEPPSEESQDTPIYTEFDEDFEEEPTSPIGHCVAIYHFEGSSEGTISMAEGEDLSLMEEDKGDGWTRVRRKEGGEGYVPTSYLRVTLN [TRIP10]	50.7	49.9	-0.00359	0.397	-0.196	-0.283
MARGSAVAWAALGPLLWGCALGLQGGMLYPQESPSRECKELDGLWSFRADFSDNRRRGFEEQWYRRPLWESGPTVDMPVPSSFNDISQDWRLRHFVGWVWYEREVILPERWTQDLRTRVVLRIGSAHSYAIVWVNGVDTLEHEGGYLPFEADISNLVQVGPLPSRLRITIAINNTLTPTTLPPGTIQYLTDTSKYPKGYFVQNTYFDFFNYAGLQRSVLLYTTPTTYIDDITVTTSVEQDSGLVNYQISVKGSNLFKLEVRLLDAENKVVANGTGTQGQLKVPGVSLWWPYLMHERPAYLYSLEVQLTAQTSLGPVSDFYTLPVGIRTVAVTKSQFLINGKPFYFHGVNKHEDADIRGKGFDWPLLVKDFNLLRWLGANAFRTSHYPYAEEVMQMCDRYGIVVIDECPGVGLALPQFFNNVSLHHHMQVMEEVVRRDKNHPAVVMWSVANEPASHLESAGYYLKMVIAHTKSLDPSRPVTFVSNSNYAADKGAPYVDVICLNSYYSWYHDYGHLELIQLQLATQFENWYKKYQKPIIQSEYGAETIAGFHQDPPLMFTEEYQKSLLEQYHLGLDQKRRKYVVGELIWNFADFMTEQSPTRVLGNKKGIFTRQRQPKSAAFLLRERYWKIANETRYPHSVAKSQCLENSLFT [GUSB]	56.4	58	-0.164	0.259	-0.942	-0.838
MFWKFDLHSSSHIDTLLEREDVTLKELMDEEDVLQECKAQNRKLIEFLLKAECLEDLVSFIIEEPPQDMDEKIRYKYPNISCELLTSDVSQMNDRLGEDESLLMKLYSFLLNDSPLNPLLASFFSKVLSILISRKPEQIVDFLKKKHDFVDLIIKHIGTSAIMDLLLRLLTCIEPPQPRQDVLNWLNEEKIIQRLVEIVHPSQEEDRHSNASQSLCEIVRLSRDQMLQIQNSTEPDPLLATLEKQEIIEQLLSNIFHKEKNESAIVSAIQILLTLLETRRPTFEGHIEICPPGMSHSACSVNKSVLEAIRGRLGSFHELLLEPPKKSVMKTTWGVLDPPVGNTRLNVIRLISSLLQTNTSSINGDLMELNSIGVILNMFFKYTWNNFLHTQVEICIALILASPFENTENATITDQDSTGDNLLLKHLFQKCQLIERILEAWEMNEKKQAEGGRRHGYMGHLTRIANCIVHSTDKGPNSALVQQLIKDLPDEVRERWETFCTSSLGETNKRNTVDLVTTCHIHSSSDDEIDFKETGFSQDSSLQQAFSDYQMQQMTSNFIDQFGFNDEKFADQDDIGNVSFDRVSDINFTLNTNESGNIALFEACCKERIQQFDDGGSDEEDIWEEKHIAFTPESQRRSSSGSTDSEESTDSEEEDGAKQDLFEPSSANTEDKMEVDLSEPPNWSANFDVPMETTHGAPLDSVGSDVWSTEEPMPTKETGWASFSEFTSSLSTKDSLRSNSPVEMETSTEPMDPLTPSAAALAVQPEAAGSVAMEASSDGEEDAESTDKVTETVMNGGMKETLSLTVDAKTETAVFKSEEGKLSTSQDAACKDAEECPETAEAKCAAPRPPSSSPEQRTGQPSAPGDTSVNGPV [PPP6R3]	54.9	54.1	-0.12	-0.236	-1.86	-1.84
MGKSRTKRFKRPQFSPTGDCQAEAAAAANGTGGEEDDGPAAELLEKLQHPSAEVRECACAGLARLVQQRPALPGLARRDAVRRLGPLLLDPSLAVRETAAGALRNLSACGGFEVCDDMVTKDIMTPLVALLKECSAGLDSNEMSLQEKKDQNRNSIENIANETVNVLWNICECSSRAVSIFNKEGCLEIVLKYLSRFPTNVDLAISVAYCLQTVTEDNPELLKSFSATALNMLESALLSPVSSMESLLLKTLVAGTIWNLKDIIPCKSQAEIINALLKILSEVLGMDAGEMVIQMKEAETQRLKTAAEAEEILENTNGDDLIEDDEMEGISHKRRVRRKTFVSDLLPPTDKELRETIALLTAQQTALEIIVNMCCNEDPSDDEWEELSSSDESDAFMENSFSECGGQLFSPLCLSHEVHTALTNYLIPKKIFEKTAFPNSIAVDLCSRNPTWKPLIRKMNTIQCRALFCLQSLVSLLDVEHLGGAAALQTLAQHLSQLLFSQPDFAKHVDFLEAISSALRALLQTMASKNISQCMTPDQLMTLCKAGIHSSNVGVRVNVVSILGITGSVLAKEDGTLETLKNIGCFLLEVTTKDPSLVVAGEALDALFDVFADGKEAERASIQIKLLSALKEFQPVFKMKIRKEGRGNYSTDQLCVLDNVKMNLRRFIAYQETVEKRLTS [HEATR3]	48.7	48.8	-0.138	0.0745	1.72	3.45
MMNKLYIGNLSPAVTADDLRQLFGDRKLPLAGQVLLKSGYAFVDYPDQNWAIRAIETLSGKVELHGKIMEVDYSVSKKLRSRKIQIRNIPPHLQWEVLDGLLAQYGTVENVEQVNTDTETAVVNVTYATREEAKIAMEKLSGHQFENYSFKISYIPDEEVSSPSPPQRAQRGDHSSREQGHAPGGTSQARQIDFPLRILVPTQFVGAIIGKEGLTIKNITKQTQSRVDIHRKENSGAAEKPVTIHATPEGTSEACRMILEIMQKEADETKLAEEIPLKILAHNGLVGRLIGKEGRNLKKIEHETGTKITISSLQDLSIYNPERTITVKGTVEACASAEIEIMKKLREAFENDMLAVNQQANLIPGLNLSALGIFSTGLSVLSPPAGPRGAPPAAPYHPFTTHSGYFSSLYPHHQFGPFPHHHSYPEQEIVNLFIPTQAVGAIIGKKGAHIKQLARFAGASIKIAPAEGPDVSERMVIITGPPEAQFKAQGRIFGKLKEENFFNPKEEVKLEAHIRVPSSTAGRVIGKGGKTVNELQNLTSAEVIVPRDQTPDENEEVIVRIIGHFFASQTAQRKIREIVQQVKQQEQKYPQGVASQRSK [IGF2BP2]	48.7	47.8	0.0614	-0.0149	-0.347	-0.134
MSIFTPTNQIRLTNVAVVRMKRAGKRFEIACYKNKVVGWRSGVEKDLDEVLQTHSVFVNVSKGQVAKKEDLISAFGTDDQTEICKQILTKGEVQVSDKERHTQLEQMFRDIATIVADKCVNPETKRPYTVILIERAMKDIHYSVKTNKSTKQQALEVIKQLKEKMKIERAHMRLRFILPVNEGKKLKEKLKPLIKVIESEDYGQQLEIVCLIDPGCFREIDELIKKETKGKGSLEVLNLKDVEEGDEKFE [SBDS]	50.4	50.2	-0.0695	-0.0131	1.75	2.97
VPRBP	50.8	50.6	-0.0867	-0.225	-0.576	-0.973
MAQAKINAKANEGRFCRSSSMADRSSRLLESLDQLELRVEALREAATAVEQEKEILLEMIHSIQNSQDMRQISDGEREELNLTANRLMGRTLTVEVSVETIRNPQQQESLKHATRIIDEVVNKFLDDLGNAKSHLMSLYSACSSEVPHGPVDQKFQSIVIGCALEDQKKIKRRLETLLRNIENSDKAIKLLEHSKGAGSKTLQQNAESRFN [BAG2]	50.9	50.9	0.474	0.345	-2.02	-3.48
MQDTGSVVPLHWFGFGYAALVASGGIIGYVKAGSVPSLAAGLLFGSLAGLGAYQLSQDPRNVWVFLATSGTLAGIMGMRFYHSGKFMPAGLIAGASLLMVAKVGVSMFNRPH [TMEM14C]		54.3	0.206	0.356	-3.8e-18	-4.49e-20

From the supplement of paper PMC5998384
